Measurements from IntAct's records for PubMed 16227972.

B1: Gigaxonin (Homo sapiens), Q9H2C0 (parent)
chain: MAEGSAVSDPQHAARLLRALSSFREESRFCDAHLVLDGEEIPVQKNILAAASPYIRTKLNYNPPKDDGSTYKIELEGISVMVMREILDYIFSGQIRLNEDTIQDVVQAADLLLLTDLKTLCCEFLEGCIAAENCIGIRDFALHYCLHHVHYLATEYLETHFRDVSSTEEFLELSPQKLKEVISLEKLNVGNERYVFEAVIRWIAHDTEIRKVHMKDVMSALWVSGLDSSYLREQMLNEPLVREIVKECSNIPLSQPQQGEAMLANFKPRGYSECIVTVGGEERVSRKPTAAMRCMCPLYDPNRQLWIELAPLSMPRINHGVLSAEGFLFVFGGQDENKQTLSSGEKYDPDANTWTALPPMNEARHNFGIVEIDGMLYILGGEDGEKELISMECYDIYSKTWTKQPDLTMVRKIGCYAAMKKKIYAMGGGSYGKLFESVECYDPRTQQWTAICPLKERRFGAVACGVAMELYVFGGVRSREDAQGSEMVTCKSEFYHDEFKRWIYLNDQNLCIPASSSFVYGAVPIGASIYVIGDLDTGTNYDYVREFKRSTGTWHHTKPLLPSDLRRTGCAALRIANCKLFRLQLQQGLFRIRVHSP

Variants of: B1
Conditions: with uba1_human UBA1, P22314
Sequence of uba1_human UBA1, P22314 (P22314 whole entry): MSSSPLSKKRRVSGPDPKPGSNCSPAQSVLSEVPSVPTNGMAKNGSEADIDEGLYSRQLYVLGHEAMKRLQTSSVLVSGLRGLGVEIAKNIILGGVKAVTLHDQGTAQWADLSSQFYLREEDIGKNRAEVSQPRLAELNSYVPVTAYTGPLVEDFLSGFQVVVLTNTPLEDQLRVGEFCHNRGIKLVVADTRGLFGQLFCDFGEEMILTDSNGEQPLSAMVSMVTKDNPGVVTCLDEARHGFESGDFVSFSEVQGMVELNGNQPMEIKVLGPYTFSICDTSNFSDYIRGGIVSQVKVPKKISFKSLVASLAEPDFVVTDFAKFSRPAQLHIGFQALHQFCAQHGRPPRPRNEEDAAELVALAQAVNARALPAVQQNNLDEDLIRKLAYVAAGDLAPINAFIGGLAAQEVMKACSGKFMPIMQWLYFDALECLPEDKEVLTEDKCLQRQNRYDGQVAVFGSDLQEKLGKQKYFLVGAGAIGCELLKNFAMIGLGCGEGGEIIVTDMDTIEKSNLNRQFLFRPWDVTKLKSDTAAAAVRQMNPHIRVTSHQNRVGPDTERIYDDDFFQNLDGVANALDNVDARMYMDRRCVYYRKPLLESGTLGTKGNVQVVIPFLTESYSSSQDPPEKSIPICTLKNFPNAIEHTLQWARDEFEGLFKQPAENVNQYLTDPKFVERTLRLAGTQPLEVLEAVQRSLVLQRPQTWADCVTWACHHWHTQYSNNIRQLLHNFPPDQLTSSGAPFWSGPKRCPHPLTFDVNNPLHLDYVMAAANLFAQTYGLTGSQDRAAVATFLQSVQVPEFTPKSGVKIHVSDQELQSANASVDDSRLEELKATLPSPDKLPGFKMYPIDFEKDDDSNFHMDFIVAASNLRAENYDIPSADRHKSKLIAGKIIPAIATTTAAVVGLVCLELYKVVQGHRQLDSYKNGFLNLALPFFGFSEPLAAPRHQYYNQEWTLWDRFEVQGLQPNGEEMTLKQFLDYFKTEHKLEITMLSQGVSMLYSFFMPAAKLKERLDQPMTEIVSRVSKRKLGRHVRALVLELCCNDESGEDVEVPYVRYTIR

effect of a mutation on the interaction | Variant
decreasing interaction | V82F

Variants of: B1
Conditions: with uba1_rat Uba1, Q5U300
Sequence of uba1_rat Uba1, Q5U300 (Q5U300 whole entry): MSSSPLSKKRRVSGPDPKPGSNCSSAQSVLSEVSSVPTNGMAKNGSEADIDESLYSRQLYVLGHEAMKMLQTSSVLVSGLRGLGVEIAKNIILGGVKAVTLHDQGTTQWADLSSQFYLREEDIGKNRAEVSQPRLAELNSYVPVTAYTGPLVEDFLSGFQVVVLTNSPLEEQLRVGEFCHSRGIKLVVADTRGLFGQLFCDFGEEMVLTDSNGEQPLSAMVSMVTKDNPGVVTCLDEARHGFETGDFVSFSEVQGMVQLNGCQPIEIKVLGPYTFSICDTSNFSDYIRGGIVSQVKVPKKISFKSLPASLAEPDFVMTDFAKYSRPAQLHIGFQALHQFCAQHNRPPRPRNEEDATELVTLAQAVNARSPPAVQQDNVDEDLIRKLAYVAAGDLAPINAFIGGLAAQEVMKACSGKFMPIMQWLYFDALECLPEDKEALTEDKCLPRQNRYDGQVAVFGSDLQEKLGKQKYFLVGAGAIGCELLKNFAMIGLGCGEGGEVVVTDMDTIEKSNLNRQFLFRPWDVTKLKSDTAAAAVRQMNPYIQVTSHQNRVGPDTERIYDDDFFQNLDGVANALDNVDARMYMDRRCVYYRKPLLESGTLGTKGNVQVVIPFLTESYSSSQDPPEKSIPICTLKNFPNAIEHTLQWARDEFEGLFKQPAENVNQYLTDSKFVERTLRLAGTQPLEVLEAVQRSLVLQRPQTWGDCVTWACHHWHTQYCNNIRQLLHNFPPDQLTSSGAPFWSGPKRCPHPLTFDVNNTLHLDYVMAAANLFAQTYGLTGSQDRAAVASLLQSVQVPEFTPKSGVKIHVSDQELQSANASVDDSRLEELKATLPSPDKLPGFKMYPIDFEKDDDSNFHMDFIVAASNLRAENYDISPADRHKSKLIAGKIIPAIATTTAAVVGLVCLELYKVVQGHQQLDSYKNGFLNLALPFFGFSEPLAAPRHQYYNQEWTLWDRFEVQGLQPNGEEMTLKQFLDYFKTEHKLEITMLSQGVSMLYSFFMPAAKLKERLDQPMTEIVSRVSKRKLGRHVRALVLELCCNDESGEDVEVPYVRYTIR

effect of a mutation on the interaction | Variant
decreasing interaction | V82F
